Source: the domain aggregation screens of Martell et al. (2025)

Assay: soluble fraction after stress (log2 fold change); higher = more stays soluble; pooled small domains, quantitative proteomics
Conditions: stress: 75 degC
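Further: 20 min heating vs room temperature control held 20 min.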

Sequence | soluble fraction (log2)
HMAPETALQILEQIQINPKVTMTDLANLTGYSRRWVAQTMKQLQELNVIKRVGSTKTGYWEIIA | -0.576
HMAPGSKAEIPEDLMKVINKDPKMKAFVATLNKANIMAISFRLSTAKKPETRERRFNLILETLKRGEKF | -3.16
HMAPKVTLNETETAIFEKMQQEKQLLLSELRTHFDISNKLWDTSIKTLTKNQLLTVSKEADLLWIKL | -1.34
HMAPLAVIFPEPWRGMIAPEKLEGLTQALSLNPRPGYQHDPTRRYGVSLDGLDVRFTIDGDTLTVVEVVT | -1.64
HMAPNKLQQQEVWTKALPLLQQMIMTIRQIDAAGGDSSPERELLEETAARFDETLDVERFLP | -0.339
HMAPPPLAGAREALREQIRRGSLSARRGFDAYADALGLPAGTRGAHPIFAALQRLDYPQALRLLDQEPT | -0.0614
HMAPQVKIPNLVDVSQRQAEAILNSYGLKVGHLIYKPDLAKDAVLGFMFNGRSLKAGDELAKGSSIDLILG | -0.277
HMAPRDKADKYVAAGIAEELVPILQKVGYYLVTDLKDVKAQKIQQQIGEIIKKYKLDIEKPSVQDIEGWN | -0.192
HMAQDIEQLEKAVSFYTRMDPAAAALSITNLDQKTAVNILMRMKDKQASAVLESMTAERSSELIDSIARK | 0.0292
HMAQELPYEKVTMNGKMFYVYHVKAGEGLYLISRTFSVNADEILKFNPSIENGLKSGQVLYIPIK | -1.23
HMAQISDESALYDLVKSVLDANPQSIADYKAGRDRALGFLMGQAMKLSKGKANPPVINKILKEMLDK | 0.161
HMAQKQLYIAGTDYTKNSTSQLVLAYFPAKPSSIKIFFDGIYQNKDKWSLFGKTIIFGLPISSNAVEVHYE | -4.34
HMAQLPADLSKVKSSQISDQQLTQIAQQAKNSGQSEQAVLQELKQRGLPDTEIQALGARISGLMQ | 0.211
HMAQLVVTVDKLNKRTAIPVTLSDKSSNDSVVEKGFRFEGFPFVNTATNGKKWYKDREGFFYWAGGLMEEA | 0.0903
HMAQMDDPEMVLHIYNKMIQQRLFDTAVGYSYLKDLQEYLQSIPFIRKEDIFPIPVQHPQVEESLRKAK | -0.689
HMAQTSAELIIEYLKRNDGFMELTDKSPADEIYETFGISKKNFKMAVGSLYKNRVIEIGQNGIRLVE | -0.426
HMAQTTKWREIHKVKRKETIFGIARDNGLTVDELIEANPEMTKPGYELKKGDFIYIPFPSKNIDTNAGTQT | 0.498
HMARAESYGDIARLEQLLDEHANIAALDPGKLPAVRQQIWTLMRAARMDHDLGLAERPEDDSFDDMLLHV | 0.208
HMARAPIYPDGLTQREVEVLSLVAAGKTDREIAEELFIALRTVTTHVGNILNKIGAANRTEAAGYATRQGL | -1.7

Sequence | soluble fraction (log2)
HMARAVSPLEAIPGVGPRRRQQLLKQLGGMQEVARAGVEDLSRVPGISRALAQQIYDAFHGD | -0.287
HMARDPWDVLGVAKTATNDEIKRAFKRQAMMTHPDKQGGSEERFKEVNEAYSHIKDEQSRAKYQNSQ | 0.158
HMARDSYNGVQRTISTLLGQGNYDRAYDVAVGARGQMSKQQWSDVAKRIYEVSGIKIDDSVKY | -0.113
HMARRSRADAVRNREALIDAAKAAFTEAGPDVSLEEIARRAGVGIGTLYRHFPTRDAVIEAVYR | -0.185
HMARRTPPPTVSELNALLRVAAPHIQRVILLGIYTGARIGPSELFSLKWDDVDLTRGVIGIRL | -0.0659
HMARTDVKLREVAQELLRMGLLEESLRPHLYRTALASMERLNATLEPLDLIARADEIRGLVFLAVRH | -2.73
HMARVSGIDLPKNKRGYIGLTYIYGIGRSTALHILNSAGVDPEKKVHEWNDDETTAIRNIINAEIKVEGAL | -0.631
HMASAKTVAQSGTYKFAKTTAIKSSASDAASTVGTYYKGNTVNYNAKVTTNGQTWLRYTSYSGAQYYVKVS | -3.66
HMASANMPDVLGLDAETAKQVLAAKGFTKVEIYPMESSEPANRVVRQSEDRDTMVALTKEILLGVSNGS | 0.0531
HMASENISYSQFINQVKNSMVESVSIEADGKTISGKYKSGSSFVTYGLNDPKLVDDLLSNNVEIL | 0.143
HMASGLITEEQAKSKALAHAGLSASQVNFIWVKQDWEDGRRVYEVEFYTDDYQEYDYEIDARTGEILSFDY | -1.84
HMASIGTATVTADNLRLRSEAGTGAETLTMAPKGAEVTVEEDAGDGWYKVTYGDTEGYMSGEWLKITLA | -0.0355
HMASLIGEEKALQIALEHAGVALENVAYSQVKLENDDGRWEYDTEFYSGSKEYDYEIDASTGEILGYDHD | 0.0872
HMASLSITVNGETRRAAPGSIADLVRAIGLDPAKVAVERNGEIAPRSTLADVALADGDVLEIVHFVG | -0.359
HMASMEDILAEAKTKFQEGDLFKSVNEGIQGTHKLTLPLRIKESRIVDASGAAVYREGIWATVDK | 0.166
HMASMNPVWLEFPNIPWGSAGWRMGWGEDYMRRWAKWYISLAEVERQSYKSDWPEPQEWEGFYAFMEHGT | -1.85
HMASPEIAFLNKFYQLSNTVNEISVMKIVKNYQEKYQQRISIEQMAKTLKTMGYAVRNNIISNIEEAPV | -1.53
HMASPRVWKDASSGRTLTGEFVELTKDAVKVRRANGDVVSLPLSRLTEEDITFAKGASETGGA | 0.198
HMASVLTAKLSEREVDVLNLLARGFTNADIAAQLHLSEGTVRNHVSTIFAKLDVNDRTQAAVIAIRHGL | -2.52
